Assay results taken from US6413935.

Target: HLA-DQ3.1 (DQA1*0301/DQB1*0310), purified from PF cells (human) (UniProt P01909)
Assay: 125I-peptide inhibition, purified class II

lambda rep 12-26 (peptide) was tested, and the IC50 was > 10 µM.
